# Assay results published in patent EP4592321A1 (Biotheus Inc., dated 2025).
# Tests used:
# [1] = biological target: T1, HER2 expressed on human gastric cancer cell N87 (human, UniProt P04626 23-1255); assay: flow cytometry on N87 cells, MFI, anti-human IgG-Fc PE
# T1 construct: whole, on cells; N87 cells are described as self-expressing HER2; also called human HER2 on N87 cells; HER2 antigen on N87
# [2] = biological target: T2, human HER2 antigen (purchased from AcroBiosystems) (human, UniProt P04626 23-652); assay: BLI (ForteBio), antibody on AHQ sensor, 100 nM HER2, 1:1 model
# T2 construct: Bought soluble antigen used at 100 nM in BLI; also called human HER2 protein; HER2 protein
# [3] = biological target: T2, human HER2 antigen (purchased from …); assay: BLI (ForteBio), antibody before and after 2 and 4 weeks at 40 C on AHQ sensor, 100 nM human HER2
binding result [1],binding result [2],binding result [3],Binder
binds,binds,,"Anti-HER2(NO3-36)_single arm (antibody, human IgG1, kappa, also called Anti-HER2 single-arm antibody) heavy: not shown light: DIQMTQSPSSLSASVGDRVTITCRASNYVQTAVAWYQQKPGKAPKLLIYSASFLYSGVPSRFSGSRSGTDFTLTISSLQPEDFATYYCQQHFMTPPTFGQGTKVEIKRTVAAPSVFIFPPSDEQLKSGTASVVCLLNNFYPREAKVQWKVDNALQSGNSQESVTEQDSKDSTYSLSSTLTLSKADYEKHKVYACEVTHQGLSSPVTKSFNRGEC not shown"
binds,binds,,"Anti-HER2(NO3-46)_single arm (antibody, human IgG1, kappa, also called Anti-HER2 single-arm antibody) heavy: not shown light: DIQMTQSPSSLSASVGDRVTITCRASQSVQGAVAWYQQKPGKAPKLLIYSASFLYSGVPSRFSGSRSGTDFTLTISSLQPEDFATYYCQQHSTTPPTFGQGTKVEIKRTVAAPSVFIFPPSDEQLKSGTASVVCLLNNFYPREAKVQWKVDNALQSGNSQESVTEQDSKDSTYSLSSTLTLSKADYEKHKVYACEVTHQGLSSPVTKSFNRGEC not shown"
binds,binds,,"Anti-HER2(NO3-36) (antibody, human IgG1, kappa, V domains shown, also called optimized Anti-HER2 antibody) VH: not shown VL: DIQMTQSPSSLSASVGDRVTITCRASNYVQTAVAWYQQKPGKAPKLLIYSASFLYSGVPSRFSGSRSGTDFTLTISSLQPEDFATYYCQQHFMTPPTFGQGTKVEIKR"

# More lines, now with the values behind:
Binder,binding result [1],binding result [2],binding result [3]
"Anti-HER2(NO3-02)_single arm (antibody, human IgG1, kappa, also called Anti-HER2 single-arm antibody) heavy: not shown light: DIQMTQSPSSLSASVGDRVTITCRASQNVQGAVAWYQQKPGKAPKLLIYSASFLYSGVPSRFSGSRSGTDFTLTISSLQPEDFATYYCQQHYSTPPTFGQGTKVEIKRTVAAPSVFIFPPSDEQLKSGTASVVCLLNNFYPREAKVQWKVDNALQSGNSQESVTEQDSKDSTYSLSSTLTLSKADYEKHKVYACEVTHQGLSSPVTKSFNRGEC not shown",binds,binds,
"Anti-HER2(NO3-02) (antibody, human IgG1, kappa, V domains shown, also called optimized Anti-HER2 antibody) VH: not shown VL: DIQMTQSPSSLSASVGDRVTITCRASQNVQGAVAWYQQKPGKAPKLLIYSASFLYSGVPSRFSGSRSGTDFTLTISSLQPEDFATYYCQQHYSTPPTFGQGTKVEIKR",binds,binds,
"Anti-HER2(NO3-46) (antibody, human IgG1, kappa, V domains shown, also called optimized Anti-HER2 antibody) VH: not shown VL: DIQMTQSPSSLSASVGDRVTITCRASQSVQGAVAWYQQKPGKAPKLLIYSASFLYSGVPSRFSGSRSGTDFTLTISSLQPEDFATYYCQQHSTTPPTFGQGTKVEIKR",binds,,binds
